From paper PMC10540216, “Activity Guided Azide-methyllysine Photo-trapping for Substrate Profiling of Lysine Demethylases” (Journal of the American Chemical Society, 2023)

Each molecule was assayed on KDM4A-I71AzF (assay: CASI: photo-crosslinking with HEK293T cell extracts, StrepTactin enrichment and LC-MS/MS proteomics). Details: sheet "Final results but with 0.01".
Type: binding, human
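Note: lysates from HEK293T cells pretreated with a KDM4 inhibitor to raise proteome methylation, affinity-purified after ±UV, gel-resolved, trypsin-digested, with exclusive unique peptides per protein averaged per condition.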

Row | Molecule | Fold change (+UV/-UV)
1 | PRP16_HUMAN (protein, UniProt Q92620 2-1227, looked up) Pre-mRNA-splicing factor …: GDTSEDASIHRLEGTDLDCQVGGLICKSKSAASEQHVFKAPAPRPSLLGLDLLASLKRREREEKDDGEDKKKSKVSSYKDWEESKDDQKDAEEEGGDQAGQNIRKDRHYRSARVETPSHPGGVSEEFWERSRQRERERREHGVYASSKEEKDWKKEKSRDRDYDRKRDRDERDRSRHSSRSERDGGSERSSRRNEPESPRHRPKDAATPSRSTWEEEDSGYGSSRRSQWESPSPTPSYRDSERSHRLSTRDRDRSVRGKYSDDTPLPTPSYKYNEWADDRRHLGSTPRLSRGRGRREEGEEGISFDTEEERQQWEDDQRQADRDWYMMDEGYDEFHNPLAYSSEDYVRRREQHLHKQKQKRISAQRRQINEDNERWETNRMLTSGVVHRLEVDEDFEEDNAAKVHLMVHNLVPPFLDGRIVFTKQPEPVIPVKDATSDLAIIARKGSQTVRKHREQKERKKAQHKHWELAGTKLGDIMGVKKEEEPDKAVTEDGKVDYRTEQKFADHMKRKSEASSEFAKKKSILEQRQYLPIFAVQQELLTIIRDNSIVIVVGETGSGKTTQLTQYLHEDGYTDYGMIGCTQPRRVAAMSVAKRVSEEMGGNLGEEVGYAIRFEDCTSENTLIKYMTDGILLRESLREADLDHYSAIIMDEAHERSLNTDVLFGLLREVVARRSDLKLIVTSATMDAEKFAAFFGNVPIFHIPGRTFPVDILFSKTPQEDYVEAAVKQSLQVHLSGAPGDILIFMPGQEDIEVTSDQIVEHLEELENAPALAVLPIYSQLPSDLQAKIFQKAPDGVRKCIVATNIAETSLTVDGIMFVIDSGYCKLKVFNPRIGMDALQIYPISQANANQRSGRAGRTGPGQCFRLYTQSAYKNELLTTTVPEIQRTNLANVVLLLKSLGVQDLLQFHFMDPPPEDNMLNSMYQLWILGALDNTGGLTSTGRLMVEFPLDPALSKMLIVSCDMGCSSEILLIVSMLSVPAIFYRPKGREEESDQIREKFAVPESDHLTYLNVYLQWKNNNYSTIWCNDHFIHAKAMRKVREVRAQLKDIMVQQRMSLASCGTDWDIVRKCICAAYFHQAAKLKGIGEYVNIRTGMPCHLHPTSSLFGMGYTPDYIVYHELVMTTKEYMQCVTAVDGEWLAELGPMFYSVKQAGKSRQENRRRAKEEASAMEEEMALAEEQLRARRQEQEKRSPLGSVRSTKIYTPGRKEQGEPMTPRRTPARFGL | 0
2 | PYC_HUMAN (protein, UniProt P11498 21-1178, looked up) Pyruvate carboxylase, …: TAPAASPNVRRLEYKPIKKVMVANRGEIAIRVFRACTELGIRTVAIYSEQDTGQMHRQKADEAYLIGRGLAPVQAYLHIPDIIKVAKENNVDAVHPGYGFLSERADFAQACQDAGVRFIGPSPEVVRKMGDKVEARAIAIAAGVPVVPGTDAPITSLHEAHEFSNTYGFPIIFKAAYGGGGRGMRVVHSYEELEENYTRAYSEALAAFGNGALFVEKFIEKPRHIEVQILGDQYGNILHLYERDCSIQRRHQKVVEIAPAAHLDPQLRTRLTSDSVKLAKQVGYENAGTVEFLVDRHGKHYFIEVNSRLQVEHTVTEEITDVDLVHAQIHVAEGRSLPDLGLRQENIRINGCAIQCRVTTEDPARSFQPDTGRIEVFRSGEGMGIRLDNASAFQGAVISPHYDSLLVKVIAHGKDHPTAATKMSRALAEFRVRGVKTNIAFLQNVLNNQQFLAGTVDTQFIDENPELFQLRPAQNRAQKLLHYLGHVMVNGPTTPIPVKASPSPTDPVVPAVPIGPPPAGFRDILLREGPEGFARAVRNHPGLLLMDTTFRDAHQSLLATRVRTHDLKKIAPYVAHNFSKLFSMENWGGATFDVAMRFLYECPWRRLQELRELIPNIPFQMLLRGANAVGYTNYPDNVVFKFCEVAKENGMDVFRVFDSLNYLPNMLLGMEAAGSAGGVVEAAISYTGDVADPSRTKYSLQYYMGLAEELVRAGTHILCIKDMAGLLKPTACTMLVSSLRDRFPDLPLHIHTHDTSGAGVAAMLACAQAGADVVDVAADSMSGMTSQPSMGALVACTRGTPLDTEVPMERVFDYSEYWEGARGLYAAFDCTATMKSGNSDVYENEIPGGQYTNLHFQAHSMGLGSKFKEVKKAYVEANQMLGDLIKVTPSSKIVGDLAQFMVQNGLSRAEAEAQAEELSFPRSVVEFLQGYIGVPHGGFPEPFRSKVLKDLPRVEGRPGASLPPLDLQALEKELVDRHGEEVTPEDVLSAAMYPDVFAHFKDFTATFGPLDSLNTRLFLQGPKIAEEFEVELERGKTLHIKALAVSDLNRAGQRQVFFELNGQLRSILVKDTQAMKEMHFHPKALKDVKGQIGAPMPGKVIDIKVVAGAKVAKGQPLCVLSAMKMETVVTSPMEGTVRKVHVTKDMTLEGDDLILEIE | 0.3333
3 | KRT83_HUMAN (protein, UniProt P78385 1-493, looked up) Keratin, type II cuticular Hb3: MTCGFNSIGCGFRPGNFSCVSACGPRPSRCCITAAPYRGISCYRGLTGGFGSHSVCGGFRAGSCGRSFGYRSGGVCGPSPPCITTVSVNESLLTPLNLEIDPNAQCVKQEEKEQIKSLNSRFAAFIDKVRFLEQQNKLLETKLQFYQNRECCQSNLEPLFAGYIETLRREAECVEADSGRLASELNHVQEVLEGYKKKYEEEVALRATAENEFVALKKDVDCAYLRKSDLEANVEALIQEIDFLRRLYEEEIRILQSHISDTSVVVKLDNSRDLNMDCIVAEIKAQYDDIATRSRAEAESWYRSKCEEMKATVIRHGETLRRTKEEINELNRMIQRLTAEVENAKCQNSKLEAAVAQSEQQGEAALSDARCKLAELEGALQKAKQDMACLIREYQEVMNSKLGLDIEIATYRRLLEGEEQRLCEGVEAVNVCVSSSRGGVVCGDLCVSGSRPVTGSVCSAPCNGNLVVSTGLCKPCGQLNTTCGGGSCGQGRH | 10
4 | RRP44_HUMAN (protein, UniProt Q9Y2L1 1-958, looked up) Exosome complex exonuclease …: MLKSKTFLKKTRAGGVMKIVREHYLRDDIGCGAPGCAACGGAHEGPALEPQPQDPASSVCPQPHYLLPDTNVLLHQIDVLEDPAIRNVIVLQTVLQEVRNRSAPVYKRIRDVTNNQEKHFYTFTNEHHRETYVEQEQGENANDRNDRAIRVAAKWYNEHLKKMSADNQLQVIFITNDRRNKEKAIEEGIPAFTCEEYVKSLTANPELIDRLACLSEEGNEIESGKIIFSEHLPLSKLQQGIKSGTYLQGTFRASRENYLEATVWIHGDNEENKEIILQGLKHLNRAVHEDIVAVELLPKSQWVAPSSVVLHDEGQNEEDVEKEEETERMLKTAVSEKMLKPTGRVVGIIKRNWRPYCGMLSKSDIKESRRHLFTPADKRIPRIRIETRQASTLEGRRIIVAIDGWPRNSRYPNGHFVRNLGDVGEKETETEVLLLEHDVPHQPFSQAVLSFLPKMPWSITEKDMKNREDLRHLCICSVDPPGCTDIDDALHCRELENGNLEVGVHIADVSHFIRPGNALDQESARRGTTVYLCEKRIDMVPELLSSNLCSLKCDVDRLAFSCIWEMNHNAEILKTKFTKSVINSKASLTYAEAQLRIDSANMNDDITTSLRGLNKLAKILKKRRIEKGALTLSSPEVRFHMDSETHDPIDLQTKELRETNSMVEEFMLLANISVAKKIHEEFSEHALLRKHPAPPPSNYEILVKAARSRNLEIKTDTAKSLAESLDQAESPTFPYLNTLLRILATRCMMQAVYFCSGMDNDFHHYGLASPIYTHFTSPIRRYADVIVHRLLAVAIGADCTYPELTDKHKLADICKNLNFRHKMAQYAQRASVAFHTQLFFKSKGIVSEEAYILFVRKNAIVVLIPKYGLEGTVFFEEKDKPNPQLIYDDEIPSLKIEDTVFHVFDKVKVKIMLDSSNLQHQKIRMSLVEPQIPGISIPTDTSNMDLNGPKKKKMKLGK | 0.6
5 | IPO5_HUMAN (protein, UniProt O00410 2-1097, looked up) Importin-5: AAAAAEQQQFYLLLGNLLSPDNVVRKQAEETYENIPGQSKITFLLQAIRNTTAAEEARQMAAVLLRRLLSSAFDEVYPALPSDVQTAIKSELLMIIQMETQSSMRKKVCDIAAELARNLIDEDGNNQWPEGLKFLFDSVSSQNVGLREAALHIFWNFPGIFGNQQQHYLDVIKRMLVQCMQDQEHPSIRTLSARATAAFILANEHNVALFKHFADLLPGFLQAVNDSCYQNDDSVLKSLVEIADTVPKYLRPHLEATLQLSLKLCGDTSLNNMQRQLALEVIVTLSETAAAMLRKHTNIVAQTIPQMLAMMVDLEEDEDWANADELEDDDFDSNAVAGESALDRMACGLGGKLVLPMIKEHIMQMLQNPDWKYRHAGLMALSAIGEGCHQQMEGILNEIVNFVLLFLQDPHPRVRYAACNAVGQMATDFAPGFQKKFHEKVIAALLQTMEDQGNQRVQAHAAAALINFTEDCPKSLLIPYLDNLVKHLHSIMVLKLQELIQKGTKLVLEQVVTSIASVADTAEEKFVPYYDLFMPSLKHIVENAVQKELRLLRGKTIECISLIGLAVGKEKFMQDASDVMQLLLKTQTDFNDMEDDDPQISYMISAWARMCKILGKEFQQYLPVVMGPLMKTASIKPEVALLDTQDMENMSDDDGWEFVNLGDQQSFGIKTAGLEEKSTACQMLVCYAKELKEGFVEYTEQVVKLMVPLLKFYFHDGVRVAAAESMPLLLECARVRGPEYLTQMWHFMCDALIKAIGTEPDSDVLSEIMHSFAKCIEVMGDGCLNNEHFEELGGILKAKLEEHFKNQELRQVKRQDEDYDEQVEESLQDEDDNDVYILTKVSDILHSIFSSYKEKVLPWFEQLLPLIVNLICPHRPWPDRQWGLCIFDDVIEHCSPASFKYAEYFLRPMLQYVCDNSPEVRQAAAYGLGVMAQYGGDNYRPFCTEALPLLVRVIQSADSKTKENVNATENCISAVGKIMKFKPDCVNVEEVLPHWLSWLPLHEDKEEAVQTFNYLCDLIESNHPIVLGPNNTNLPKIFSIIAEGEMHEAIKHEDPCAKRLANVVRQVQTSGGLWTECIAQLSPEQQAAIQELLNSA | 1
6 | SF3B1_HUMAN (protein, UniProt O75533 1-1304, looked up) Splicing factor 3B subunit 1: MAKIAKTHEDIEAQIREIQGKKAALDEAQGVGLDSTGYYDQEIYGGSDSRFAGYVTSIAATELEDDDDDYSSSTSLLGQKKPGYHAPVALLNDIPQSTEQYDPFAEHRPPKIADREDEYKKHRRTMIISPERLDPFADGGKTPDPKMNARTYMDVMREQHLTKEEREIRQQLAEKAKAGELKVVNGAAASQPPSKRKRRWDQTADQTPGATPKKLSSWDQAETPGHTPSLRWDETPGRAKGSETPGATPGSKIWDPTPSHTPAGAATPGRGDTPGHATPGHGGATSSARKNRWDETPKTERDTPGHGSGWAETPRTDRGGDSIGETPTPGASKRKSRWDETPASQMGGSTPVLTPGKTPIGTPAMNMATPTPGHIMSMTPEQLQAWRWEREIDERNRPLSDEELDAMFPEGYKVLPPPAGYVPIRTPARKLTATPTPLGGMTGFHMQTEDRTMKSVNDQPSGNLPFLKPDDIQYFDKLLVDVDESTLSPEEQKERKIMKLLLKIKNGTPPMRKAALRQITDKAREFGAGPLFNQILPLLMSPTLEDQERHLLVKVIDRILYKLDDLVRPYVHKILVVIEPLLIDEDYYARVEGREIISNLAKAAGLATMISTMRPDIDNMDEYVRNTTARAFAVVASALGIPSLLPFLKAVCKSKKSWQARHTGIKIVQQIAILMGCAILPHLRSLVEIIEHGLVDEQQKVRTISALAIAALAEAATPYGIESFDSVLKPLWKGIRQHRGKGLAAFLKAIGYLIPLMDAEYANYYTREVMLILIREFQSPDEEMKKIVLKVVKQCCGTDGVEANYIKTEILPPFFKHFWQHRMALDRRNYRQLVDTTVELANKVGAAEIISRIVDDLKDEAEQYRKMVMETIEKIMGNLGAADIDHKLEEQLIDGILYAFQEQTTEDSVMLNGFGTVVNALGKRVKPYLPQICGTVLWRLNNKSAKVRQQAADLISRTAVVMKTCQEEKLMGHLGVVLYEYLGEEYPEVLGSILGALKAIVNVIGMHKMTPPIKDLLPRLTPILKNRHEKVQENCIDLVGRIADRGAEYVSAREWMRICFELLELLKAHKKAIRRATVNTFGYIAKAIGPHDVLATLLNNLKVQERQNRVCTTVAIAIVAETCSPFTVLPALMNEYRVPELNVQNGVLKSLSFLFEYIGEMGKDYIYAVTPLLEDALMDRDLVHRQTASAVVQHMSLGVYGFGCEDSLNHLLNYVWPNVFETSPHVIQAVMGALEGLRVAIGPCRMLQYCLQGLFHPARKVRDVYWKIYNSIYIGSQDALIAHYPRIYNDDKNTYIRYELDYIL | 2
